Tests used:
[1] = target: medaka Opn5m (medaka)
[2] = target: medaka Opn5m (medaka); remark: listed apart in the source

| relative aequorin luminescence (calcium response) after UV light, 293TΔGQ cells cotransfected with OlOpn5m and medaka Gα: against OlGαq, OlGα11a and OlGα11b [1] | relative aequorin luminescence (calcium response) after UV light, ATR-reconstituted OlOpn5m in 293TΔGQ cells: mGα14 against mGαq [2] | Molecule |
| --- | --- | --- |
| 24 fold | – | medaka Gα11c (natural protein) |
| 24 fold | – | medaka Gα14a (natural protein) |
| – | 27 fold | mouse Gα14 (natural protein) MAGCCCLSAEEKESQRISAEIERQLRRDKKDARRELKLLLLGTGESGKSTFIKQMRIIHGSGYSDEDRKGFTKLVYQNIFTAMQAMIRAMDTLRIQYMCEQNKENAQIIREVEVDKVTALSRDQVAAIKQLWLDPGIQECYDRRREYQLSDSAKYYLTDIERIAMPSFVPTQQDVLRVRVPTTGIIEYPFDLENIIFRMVDVGGQRSERRKWIHCFESVTSIIFLVALSEYDQVLAECDNENRMEESKALFRTIITYPWFLNSSVILFLNKKDLLEEKIMYSHLISYFPEYTGPKQDVKAARDFILKLYQDQNPDKEKVIYSHFTCATDTENIRFVFAAVKDTILQLNLREFNLV |
